Tests used:
[1] = target: T1, cynomolgus CLL-1 on cells (HEK293AD cells stably expressing recombinant cynoCLL-1) (cynomolgus monkey); assay: Scatchard analysis on 293AD/cynoCLL1 cells; 293AD/cynoCLL1 cells
T1 construct: also called 293AD/cynoCLL-1; 293AD/cynoCLL1
T1 chain: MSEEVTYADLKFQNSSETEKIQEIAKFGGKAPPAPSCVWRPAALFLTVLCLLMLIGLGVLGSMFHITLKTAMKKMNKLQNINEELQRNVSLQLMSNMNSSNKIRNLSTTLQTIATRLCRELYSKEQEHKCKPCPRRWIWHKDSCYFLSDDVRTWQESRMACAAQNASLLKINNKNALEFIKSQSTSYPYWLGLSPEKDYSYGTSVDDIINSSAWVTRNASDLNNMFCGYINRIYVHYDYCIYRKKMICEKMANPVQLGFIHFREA

[2] = target: T1, cynomolgus CLL-1 on cells (HEK293AD …); assay: Scatchard analysis on 293AD/cynoCLL1 cells
Experimental: Competition assay mixtures of 50 μL volume containing a fixed concentration of [I¹²⁵] labeled antibody and decreasing concentrations of serially diluted, unlabeled antibody were placed into 96-well plates. HEK293AD cells stably expressing recombinant hu or cynoCLL-1 or HL-60 tumor cells expressing endogenous CLL-1 were cultured in growth media at 37° C. in 5% CO₂. Cells were detached from the flask using Sigma Cell Dissociation Solution and were washed with binding buffer, which consisted of Dulbecco's Modified Eagle Medium (DMEM) with 1% bovine serum albumin (BSA), […] and 0.1% sodium azide. The washed cells were added to the 96 well plates at a density of 100,000 cells in 0.2 mL of binding buffer. […] The final concentration of the unlabeled antibody in the competition assay ranged from 1000 nM through ten 2-fold dilution steps to a 0 nM buffer-only assay. Competition assays were carried out in triplicate. Competition assays were incubated for 2 hours at room temperature. […] The filters were counted on a Wallac Wizard 1470 gamma counter (PerkinElmer Life and Analytical Sciences Inc.; Wellesley, Mass.). The binding data was evaluated using NewLigand software (Genentech), which uses the fitting algorithm of Munson and Robard to determine the binding affinity of the antibody (Munson and Robard 1980).

- Kd [1]: 0.67 nM
- Kd [2]: 0.22 nM
B1: humanized 6E7.L4H1e (antibody, V domains shown)
VH: EVQLVQSGAEVKKPGASVKVSCKASGYSFTDYYMHWVRQAPGQGLEWIGRINPYNGAAFYSQNFKDRVTLTVDTSTSTAYLELSSLRSEDTAVYYCAIERGADLEGYAMDYWGQGTLVTVSS
VL: DIQMTQSPSSLSASVGDRVTITCRASQSVSTSSYNYMHWYQQKPGKPPKLLIKYASNLESGVPSRFSGSGSGTDFTLTISSLQPEDFATYYCQHSWEIPLTFGQGTKVEIK
notes: also called h6E7.L4H1e; 6E7.L4H1eN54
